Measurements published in patent US8663912B2, “Fluorogenic substrate for ADAMTS13” (Washington University, priority 2011, dated 2014).

Target: T1, ADAMTS13 (Homo sapiens, UniProt Q76LX8)
T1 sequence (Q76LX8 75-1427): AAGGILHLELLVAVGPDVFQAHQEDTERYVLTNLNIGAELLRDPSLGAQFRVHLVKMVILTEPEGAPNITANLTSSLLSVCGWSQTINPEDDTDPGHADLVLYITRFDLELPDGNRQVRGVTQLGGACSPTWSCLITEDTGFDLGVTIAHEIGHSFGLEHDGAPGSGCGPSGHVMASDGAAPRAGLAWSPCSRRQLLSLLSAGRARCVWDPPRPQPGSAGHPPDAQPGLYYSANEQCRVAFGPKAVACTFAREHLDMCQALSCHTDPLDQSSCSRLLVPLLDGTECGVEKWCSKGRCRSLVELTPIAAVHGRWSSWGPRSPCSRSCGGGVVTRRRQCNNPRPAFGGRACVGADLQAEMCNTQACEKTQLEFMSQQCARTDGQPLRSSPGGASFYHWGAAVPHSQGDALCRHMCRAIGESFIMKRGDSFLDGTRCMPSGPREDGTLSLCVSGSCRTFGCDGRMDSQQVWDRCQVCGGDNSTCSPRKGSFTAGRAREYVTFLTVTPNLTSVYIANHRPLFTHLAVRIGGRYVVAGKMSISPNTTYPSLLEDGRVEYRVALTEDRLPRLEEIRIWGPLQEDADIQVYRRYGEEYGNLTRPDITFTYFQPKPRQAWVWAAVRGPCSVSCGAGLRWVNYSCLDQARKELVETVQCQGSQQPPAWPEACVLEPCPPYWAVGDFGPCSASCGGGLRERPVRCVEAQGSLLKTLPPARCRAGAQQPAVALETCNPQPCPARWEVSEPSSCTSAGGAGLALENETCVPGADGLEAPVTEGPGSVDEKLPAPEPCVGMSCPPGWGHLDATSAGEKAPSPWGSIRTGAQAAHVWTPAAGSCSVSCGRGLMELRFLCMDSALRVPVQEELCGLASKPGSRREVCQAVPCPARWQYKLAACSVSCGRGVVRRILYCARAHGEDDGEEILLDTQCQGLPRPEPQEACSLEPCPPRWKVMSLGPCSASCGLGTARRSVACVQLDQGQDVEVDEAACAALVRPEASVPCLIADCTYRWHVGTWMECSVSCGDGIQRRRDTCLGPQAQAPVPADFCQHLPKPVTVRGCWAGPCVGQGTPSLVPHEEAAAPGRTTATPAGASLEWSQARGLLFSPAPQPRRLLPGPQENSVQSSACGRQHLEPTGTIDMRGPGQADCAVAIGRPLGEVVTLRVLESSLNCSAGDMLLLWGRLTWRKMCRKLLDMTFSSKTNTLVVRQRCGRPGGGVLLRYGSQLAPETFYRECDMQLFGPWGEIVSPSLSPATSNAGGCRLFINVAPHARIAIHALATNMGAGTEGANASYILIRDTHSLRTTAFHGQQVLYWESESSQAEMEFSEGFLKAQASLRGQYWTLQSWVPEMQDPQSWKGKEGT
Assay: Effect of bilirubin and hemoglobin on FRETS-rVWF71 ADAMTS13 assays
Assay type: biochemical
Set-up: FRETS-rVWF71 cleavage by plasma ADAMTS13 (50 μL) was assessed in 200 μL reactions; from tissue; host or cells: human plasma or serum (pooled normal plasma, healthy donors, TTP patients)

IC50 for inhibition of ADAMTS13 activity (FRETS-rVWF71 substrate): 10-15 g/L
effect on detection of FRETS-rVWF71 cleavage products (hemoglobin ≦20 g/L): did not affect
Substance: hemoglobin
